Experimental findings from patent US20240190940A1 (published 2024) are described below.

The target of test [1] is Q61K RAS 10-mer peptide … presented by HLA-A*01:01 on cells (human). The experiment in a line: cell-based or functional assay.
The target in test [2] is T1, NRAS Q61K (Q61K RAS; same sequence in KRAS and HRAS Q61K) peptide on HLA-A*01:01 (human).
T1 peptide: ILDTAGKEEY
Description: multimer staining.

The target of test [3] is T2, NRAS Q61K peptide on HLA-C*07:01 (human).
T2 peptide: ILDTAGKEEY
The experiment in a line: cytokine release.

Test [4] concerns the target T3, NRAS Q61K peptide on HLA-A*02:01 (human).
T3 peptide: ILDTAGKEEY
The experiment in a line: cytokine release.

The target in test [5] is T4, NRAS Q61R peptide on HLA-A*01:01 (human).
T4 peptide: ILDTAGREEY
The experiment in a line: cytokine release.

Test [6] addresses T5, NRAS Q61K peptide on HLA-B*08:01 (human).
T5 peptide: ILDTAGKEEY
Description: cytokine release.

The target in test [7] is T6, NRAS Q61K peptide on HLA-B*27:01 (human).
T6 peptide: ILDTAGKEEY
The experiment in a line: cytokine release.

B1: TCR 3795, cysteine-substituted, LVL-modified chimeric TCR (human variable regions, murine constant regions) (TCR)
TCR alpha: AQKVTQAQTEISVVEKEDVTLDCVYETRDTTYYLFWYKQPPSGELVFLIRRNSFDEQNEISGRYSWNFQKSTSSFNFTITASQVVDSAVYFCALSESHNNAGNMLTFGGGTRLMVKPNIQNPEPAVYQLKDPRSQDSTLCLFTDFDSQINVPKTMESGTFITDKCVLDMKAMDSKSNGAIAWSNQTSFTCQDIFKETNATYPSSDVPCDATLTEKSFETDMNLNFQNLLVIVLRILLLKVAGFNLLMTLRLWSS
TCR beta: NAGVTQTPKFQVLKTGQSMTLQCAQDMNHNSMYWYRQDPGMGLRLIYYSASEGTTDKGEVPNGYNVSRLNKREFSLRLESAAPSQTSVYFCAASQNTEAFFGQGTRLTVVEDLRNVTPPKVSLFEPSKAEIANKQKATLVCLARGFFPDHVELSWWVNGKEVHSGVCTDPQAYKESNYSYCLSSRLRVSATFWHNPRNHFRCQVQFHGLSEEDKWPEGSPKPVTQNISAEAWGRADCGITSASYQQGVLSATILYEILLGKATLYAVLVSTLVVMAMVKRKNS
Turning to B1, the 4-1BB upregulation by TCR-transduced CD8+ effector cells (flow cytometry), autologous DC pulsed with various peptide concentrations in test [1] is > 0.01 µg/ml.

B2: 3795 (TCR, V domains shown)
Valpha: AQKVTQAQTEISVVEKEDVTLDCVYETRDTTYYLFWYKQPPSGELVFLIRRNSFDEQNEISGRYSWNFQKSTSSFNFTITASQVVDSAVYFCALSESHNNAGNMLTFGGGTRLMVKP
Vbeta: NAGVTQTPKFQVLKTGQSMTLQCAQDMNHNSMYWYRQDPGMGLRLIYYSASEGTTDKGEVPNGYNVSRLNKREFSLRLESAAPSQTSVYFCAASQNTEAFFGQGTRLTVV
On to B2, for which the binding result was “recognises” in test [2]; “no recognition” in test [3]; “no recognition” in test [4]; “no recognition” in test [5]; “no recognition” in test [6]; “no recognition” in test [7].
